Experimental data published in US20070078092A1 (CUREGENICS, published 2007).
Each block holds one binder with its values, some of them ahead of it. Numbered stars: 1 amine (or outer) side, 2 acyl side, 3 side chain; on linkers, the order of the positions; unused ones are H or OH. Square brackets hold non-standard residues; d marks the D form. * marks the point of attachment. Cholesteryloxycarbonyl = CC(C)CCC[C@@H](C)[C@H]1CC[C@H]2[C@@H]3CC=C4C[C@@H](OC(=O)*)CC[C@]4(C)[C@H]3CC[C@]12C; Ser(Me) = COC[C@H](N[*:1])C(=O)[*:2]; hLeu = CC(C)CC[C@H](N)C(=O)O; Orn = NCCC[C@H](N)C(=O)O; Nva = CCC[C@H](N)C(=O)O; Dap = NC[C@H](N)C(=O)O

Molecular target: protein kinase B (PKB)
Experiment: cell-based or functional assay

B2: PTR 6380 (peptide)
peptide: H-[Orn]PR[Nva]Y[Dap][hLeu]-NH2
SMILES: CCC[C@H](NC(=O)[C@H](CCCNC(=N)N)NC(=O)[C@@H]1CCCN1C(=O)[C@@H](N)CCCN)C(=O)N[C@@H](Cc1ccc(O)cc1)C(=O)N[C@@H](CN)C(=O)N[C@@H](CCC(C)C)C(N)=O
- IC50, in vitro kinase assay PKB: > 10000 nM

B3: PTR 6368 (peptide)
peptide: H-RPH[Nva]Y[Dap][hLeu]-NH2
SMILES: CCC[C@H](NC(=O)[C@H](Cc1c[nH]cn1)NC(=O)[C@@H]1CCCN1C(=O)[C@@H](N)CCCNC(=N)N)C(=O)N[C@@H](Cc1ccc(O)cc1)C(=O)N[C@@H](CN)C(=O)N[C@@H](CCC(C)C)C(N)=O
- IC50, in vitro kinase assay PKB: > 10000 nM

B4: PTR 6372 (peptide)
peptide: H-RP[Orn][Nva]Y[Dap][hLeu]-NH2
SMILES: CCC[C@H](NC(=O)[C@H](CCCN)NC(=O)[C@@H]1CCCN1C(=O)[C@@H](N)CCCNC(=N)N)C(=O)N[C@@H](Cc1ccc(O)cc1)C(=O)N[C@@H](CN)C(=O)N[C@@H](CCC(C)C)C(N)=O
- IC50, in vitro kinase assay PKB: > 10000 nM

B5: PTR 6352 (peptide)
peptide: Cholesteryloxycarbonyl-KKKRPR[Nva]Y[Dap][hLeu]-OH
SMILES: CCC[C@H](NC(=O)[C@H](CCCNC(=N)N)NC(=O)[C@@H]1CCCN1C(=O)[C@H](CCCNC(=N)N)NC(=O)[C@H](CCCCN)NC(=O)[C@H](CCCCN)NC(=O)[C@H](CCCCN)NC(=O)O[C@H]1CC[C@@]2(C)C(=CC[C@H]3[C@@H]4CC[C@H]([C@H](C)CCCC(C)C)[C@@]4(C)CC[C@@H]32)C1)C(=O)N[C@@H](Cc1ccc(O)cc1)C(=O)N[C@@H](CN)C(=O)N[C@@H](CCC(C)C)C(=O)O
- IC50, in vitro kinase assay PKB: 200 nM

B7: PTR 6356 (peptide)
peptide: {Cholesteryl‑O‑CO‑(CH2)2‑CO}-[dK][dK][dK]RPR[Nva]Y[Dap][hLeu]-NH2
- IC50, in vitro kinase assay PKB: 170 nM

B8: PTR 6374 (peptide)
peptide: XPRXYXX
modifications: N-terminal Cholesteryl-O-CO-; Nva, Dap, Hol; C-terminal NH2
- IC50, in vitro kinase assay PKB: 1400 nM

B9: PTR 6366 (peptide)
peptide: XPRXYXX
modifications: Nva, Dap, Hol; C-terminal NH2
- IC50, in vitro kinase assay PKB: > 10000 nM

The remaining lines, values ahead:

- IC50, in vitro kinase assay PKB: > 10000 nM
B1: PTR 6370 (peptide)
peptide: XPHXYXX
modifications: Nva, Dap, Hol; C-terminal NH2

- IC50, in vitro kinase assay PKB: 200 nM
B6: PTR 6348 (peptide)
peptide: Cholesteryloxycarbonyl-[dK][dK][dK]RPR[Nva]Y[Ser(Me)][hLeu]-NH2
SMILES: CCC[C@H](NC(=O)[C@H](CCCNC(=N)N)NC(=O)[C@@H]1CCCN1C(=O)[C@H](CCCNC(=N)N)NC(=O)[C@@H](CCCCN)NC(=O)[C@@H](CCCCN)NC(=O)[C@@H](CCCCN)NC(=O)O[C@H]1CC[C@@]2(C)C(=CC[C@H]3[C@@H]4CC[C@H]([C@H](C)CCCC(C)C)[C@@]4(C)CC[C@@H]32)C1)C(=O)N[C@@H](Cc1ccc(O)cc1)C(=O)N[C@@H](COC)C(=O)N[C@@H](CCC(C)C)C(N)=O

- IC50, in vitro kinase assay PKB: 2000 nM
B10: PTR 6376 (peptide)
peptide: Cholesteryloxycarbonyl-RPH[Nva]Y[Dap][hLeu]-NH2
SMILES: CCC[C@H](NC(=O)[C@H](Cc1c[nH]cn1)NC(=O)[C@@H]1CCCN1C(=O)[C@H](CCCNC(=N)N)NC(=O)O[C@H]1CC[C@@]2(C)C(=CC[C@H]3[C@@H]4CC[C@H]([C@H](C)CCCC(C)C)[C@@]4(C)CC[C@@H]32)C1)C(=O)N[C@@H](Cc1ccc(O)cc1)C(=O)N[C@@H](CN)C(=O)N[C@@H](CCC(C)C)C(N)=O
